The text below walks through data of the DeepSol protein solubility set.

This series in a line: soluble on expression in E. coli; label from the status in PepcDB or PDB records.
Regarding “MTVTAPNALNFECETGNYHTFCPISCVAWLYQKIEDSFFLVIGTKTCGYFLQNAMGVMIFAEPRYAMAELEEGDISAQLNDYEELKRLCLEIKRDRNPSVIVWIGTCTTEIIKMDLEGLAPKLEAEIGIPIVVARANGLDYAFTQGEDTVLAAMAARCPTSTAISDPEERNPIQRLLNFGKKKEEVQAQSSQYHPHPPLVLFGSLPDPVVTQLTLELKKQGIKVSGWLPAKRYTELPVIDEGYYVAGVNPFLSRTATTLIRRRKCQLITAPFPIGPDGTRTWIEQICATFGIQPQGLAEREAETWQKLSDYLELVRGKSVFFMGDNLLEISLARFLIRCGMRVLEIGIPYMDKRYQAAELALLSQTCAEMGHPLPTIVEKPDNYNQLQRIKALQPDLVITGMAHANPLEARGISTKWSVEFTFAQIHGFGNARDILELVTRPLRRNQALAGLGWQKLVAH”, the “soluble on expression in E. coli” value is “soluble”.
The result for “MTVVKEELKEALEMLKNTGVRITPQRHAILEYLVESMTHPTADDIYKALEGKFPNMSVATVYNNLRVFKEVGLVKELTYGDASSRFDYVTSQHYHVICEKCGKIVDFPYGGLEKLEEEAAKTTGFVINSHRLEIYGVCPECHKA” reads “not soluble”; that for “MTWPAFSLGVWGYPERMDPRVPPGQFVTERFPILTYGETPKVAKEAWRLEVTGLVETPLVLTYEDLLARPQVELTRDFHCVTRWSRLDVTWKGVRTRDLLEEARPRPEAVAALVESYGGYTTNLLLEDLLREDVLLAHTLFGKPLPPERGGPVRLLVPHLYAWKSAKWVRRIVLLDHLELGFWERLGYHWRGDPWKEERFQEGPVPAHRIRFAARNKPGR”, “soluble”.
As for “MTYFVVEVTDQEIRREKDKARELRRSRWWQTVISRRTCHWCGGDFPPEELTMDHVVPIVRGGKSSRGNVVPACKECNNRKKYLLPLEWEEYLEKARNGGEQLEHHHHHH”, the “soluble on expression in E. coli” value was “soluble”.
The same measure for “MTYIAPEESAFGVGFFERLEANAKPMSLTRGPDAWDVLESIKRNVSNILNTRIGGAQSAPHLGLVDFNDATLETLDLSVRIKLAIQQCLERYEPRLTRVLVRADQDSFNPLTLRFHITATINSEALHEKVQFSLLLDQSRKYRVF”: “not soluble”; for “MTYMVSILLVSPRPGHDVATAERNDVLRATGLAPEQLEQVLIDDVEKHLPDFSRFDGIIVGGSPLNISNETYSDWQKHVHTELSRIVYSAIPSFFICYGNSFLVDLTGGTVGRTHPEDSGATIVSLTADGLTDRITRDLPTTFTSLTGHTENAICLGDSTVLLATGDTCPIQMIRANETTWACQFHAEMDAQAMKTRMDFYKDYGYFSPEDYDAIVSSLPSIDTTYSNRVLRNFIEVCEGKR”: “not soluble”; for “MVADVNLKTGEVGTRIAEINSNSDKRYVQRIIDEPKFSLMANLALSDADKSSTVVHFKASVRKGEKNLTNCIRDGLQEHFGKKIVSLAGQFIIQTGKARLHVMPDFPGCPFENNAEVDKWLNYFEMSAPLICATVMHSYDPGHNLRLEHTHCYSDHGDAGHYHYDVTPETVSYEGWFAPASKIYRIDEIKNR”: “not soluble”.
In the case of “MVAGGFGVGKTTLIGSVSEVRPLRMEEPITQASAGVDDLRGTPHKTTTTVAMDFGRIHMAGGRLALYLFGLPGQSRFQPLWEDLAEGALGCLVLADTRDLDASHDALGLLDGAGIPYAVAINTFPGSPSYPEAELREALALEPATPLTYCDARDRTSSLHALITLTEYLSEHRSAALLESRRLEHHHHHH”, the “soluble on expression in E. coli” value is on record as “not soluble”.
The same measure for “MVAKGRIIRVTGPLVVADGMKGAKMYEVVRVGELGLIGEIIRLEGDKAVIQVYEETAGVRPGEPVVGTGASLSVELGPGLLTSIYDGIQRPLEVIREKTGDFIARGVTAPALPRDKKWHFIPKAKVGDKVVGGDIIGEVPETSIIVHKIMVPPGIEGEIVEIAEEGDYTIEEVIAKVKTPSGEIKELKMYQRWPVRVKRPYKEKLPPEVPLITGQRVIDTFFPQAKGGTAAIPGPFGSGKTVTQHQLAKWSDAQVVIYIGCGERGNEMTDVLEEFPKLKDPKTGKPLMERTVLIANTSNMPVAAREASIYTGITIAEYFRDMGYDVALMADSTSRWAEALREISGRLEEMPGEEGYPAYLASKLAEFYERAGRVVTLGSDYRVGSVSVIGAVSPPGGDFSEPVVQNTLRVVKVFWALDADLARRRHFPAINWLTSYSLYVDAVKDWWHKNIDPEWKAMRDKAMALLQKESELQEIVRIVGPDALPERERAILLVARMLREDYLQQDAFDEVDTYCPPEKQVTMMRVLLNFYDKTMEAINRGVPLEEIAKLPVREEIGRMKFERDVSKIRSLIDKTNEQFEELFKKYGA”: “soluble”.
